# Entries after “also recorded” stand apart in the source; their conditions may differ.
# What was measured:
# trypsin = biological target: T1, trypsin (Bos taurus, UniProt P00760); assay: Specificity of inhibiting activity: trypsin; format: biochemical
# T1 construct: gene PRSS1
# T1 sequence (P00760 24-246): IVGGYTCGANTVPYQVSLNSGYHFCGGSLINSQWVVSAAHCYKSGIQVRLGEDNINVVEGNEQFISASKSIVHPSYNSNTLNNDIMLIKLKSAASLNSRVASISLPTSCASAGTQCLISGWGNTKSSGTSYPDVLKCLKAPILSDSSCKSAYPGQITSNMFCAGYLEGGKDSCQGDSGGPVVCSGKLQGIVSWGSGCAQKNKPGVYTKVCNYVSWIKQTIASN
# Method: (§1) The specific activities of Guamerin on the other types of proteases beside elastase, were studied; and, it was determined that: while it has no effect on papain, pepsin, thrombin, and factor Xa, Guamerin had about 15% of inhibiting-activity against trypsin, chymotrypsin, and subtilisin. […] In FIG. 4, HL-elastase and PP-elastase represent the ones isolated from human leukocyte and porcine pancreas, respectively.
# pepsin = pepsin (Homo sapiens, UniProt P0DJD8); assay: Specificity of inhibiting activity: pepsin; format: biochemical
# Method: as §1
# papain = biological target: T2, papain (Carica papaya, UniProt P00784); assay: Specificity of inhibiting activity: papain; format: biochemical
# T2 sequence (P00784 134-345): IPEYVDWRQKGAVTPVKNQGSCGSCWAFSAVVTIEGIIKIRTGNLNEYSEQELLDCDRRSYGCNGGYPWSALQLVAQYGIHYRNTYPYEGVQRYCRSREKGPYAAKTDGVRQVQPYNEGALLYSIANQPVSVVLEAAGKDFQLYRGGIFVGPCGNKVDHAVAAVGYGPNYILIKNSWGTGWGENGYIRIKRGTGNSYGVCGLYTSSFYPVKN
# Method: as §1
# factor Xa = factor Xa (Homo sapiens, UniProt P00742); assay: Specificity of inhibiting activity: factor Xa; format: biochemical
# Method: as §1
# chymotrypsin = chymotrypsin (Bos taurus, UniProt P00766); assay: Specificity of inhibiting activity: chymotrypsin; format: biochemical
# Method: as §1
# [1] = Heat stability of Guamerin activity; format: physicochemical; settings: 40° C. to 100° C. at an interval of 10° C., 15 min
# Method: To investigate the effect of heat on the activity of Guamerin, it was subjected to heating condition at an interval of 10° C. ranging from 40° C. to 100° C. for 15 min(see: FIG. 6).
# subtilisin = assay: Specificity of inhibiting activity: subtilisin; format: biochemical
# Method: as §1
# elastase [2] = assay: Elastase-inhibiting activity assay (decrease in ρ-nitroaniline degrading activity of elastase); format: biochemical; settings: 1 U = amount of inhibitor that decreases the degradation of 1 μM ρ-nitroaniline by elastase per minute; 37° C., 50 min
# Method: The activity of the purified Guamerin was assayed as follows: 50 μl of elastase-containing solution(0.37 mg/ml) and 500 μl of 1 mM .rho.-nitroaniline were mixed together, and 50 μl of each of fractions obtained in the course of purification was added to the mixture, and left to react at 37° C. for 50 min. The absorbance(O.D.) at 440 nm calculated in terms of the hydrolysed .rho.-nitroaniline, was measured. O.D. values of the control and the active fractions were compared, and the activity of Guamerin was determined, based on the decrease in .rho.-nitroaniline degradating activity of elastase.
# Protein was quantitatively assayed by Bradford method(see: Bradford, M. M., Anal. Biochem., 72: 248-254(1976)). In this regard, one unit(1 U) was defined as the amount of inhibitor that decreases the degradation of 1 μM .rho.-nitroaniline by elastase per minute.
# elastase [3] = biological target: T3, elastase (Homo sapiens, UniProt P08246); assay: Determination of inhibition constant and inhibition mechanism; format: biochemical; settings: FIG. 5
# T3 sequence (P08246 30-247 limits assumed): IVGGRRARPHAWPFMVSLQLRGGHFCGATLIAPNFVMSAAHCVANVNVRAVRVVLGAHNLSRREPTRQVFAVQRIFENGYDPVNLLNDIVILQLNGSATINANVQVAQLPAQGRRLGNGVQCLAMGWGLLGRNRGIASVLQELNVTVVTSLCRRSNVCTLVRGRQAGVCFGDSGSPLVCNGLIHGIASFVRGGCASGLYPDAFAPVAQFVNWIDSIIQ
# elastase [4] = assay: Specificity of inhibiting activity: elastase; format: biochemical; settings: FIG. 4: HL-elastase (human leukocyte) and PP-elastase (porcine pancreas)
# Method: as §1
# thrombin = thrombin (Homo sapiens, UniProt P00734); assay: Specificity of inhibiting activity: thrombin; format: biochemical
# Method: as §1
# elastase [5] = biological target: T4, elastase (Homo sapiens, UniProt P08246); settings: other elastase-inhibiting proteins in the prior art; read-out: inhibition constant; cited from earlier work
# T4 sequence (P08246 30-267): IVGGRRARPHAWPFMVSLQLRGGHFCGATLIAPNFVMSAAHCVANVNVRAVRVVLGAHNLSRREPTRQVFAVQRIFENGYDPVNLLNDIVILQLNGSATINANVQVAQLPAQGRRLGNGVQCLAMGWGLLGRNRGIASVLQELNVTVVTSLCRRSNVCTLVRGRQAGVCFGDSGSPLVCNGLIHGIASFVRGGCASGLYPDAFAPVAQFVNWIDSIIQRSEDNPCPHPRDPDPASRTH
# Chain of factor Xa (P00742 235-488 limits assumed): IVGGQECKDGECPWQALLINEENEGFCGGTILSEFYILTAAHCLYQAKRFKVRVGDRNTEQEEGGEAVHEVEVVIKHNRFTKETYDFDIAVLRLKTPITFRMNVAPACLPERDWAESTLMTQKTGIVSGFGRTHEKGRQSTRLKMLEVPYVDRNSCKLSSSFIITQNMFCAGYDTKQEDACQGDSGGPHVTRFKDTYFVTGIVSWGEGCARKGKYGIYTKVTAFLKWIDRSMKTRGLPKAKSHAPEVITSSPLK
# Chain of pepsin (P0DJD8 63-388): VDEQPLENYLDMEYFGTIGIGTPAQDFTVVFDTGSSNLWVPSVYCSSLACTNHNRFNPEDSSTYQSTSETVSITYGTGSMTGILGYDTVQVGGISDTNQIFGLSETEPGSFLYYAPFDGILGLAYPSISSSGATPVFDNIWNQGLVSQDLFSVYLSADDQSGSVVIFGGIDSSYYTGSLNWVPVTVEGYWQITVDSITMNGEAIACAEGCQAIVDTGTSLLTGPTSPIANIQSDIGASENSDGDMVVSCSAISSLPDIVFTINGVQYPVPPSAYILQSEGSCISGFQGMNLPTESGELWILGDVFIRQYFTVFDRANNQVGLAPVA
Substance,inhibiting-activity against trypsin (trypsin),effect on pepsin (pepsin),effect on papain (papain),effect on factor Xa (factor Xa),inhibiting-activity against chymotrypsin (chymotrypsin),change in activity after heating [1],inhibiting-activity against subtilisin (subtilisin),Specific activity (elastase [2]),mechanism of elastase inhibition (elastase [3]),inhibiting activity on elastase (elastase [4]),effect on thrombin (thrombin),Ki (elastase [5])
"Guamerin: novel elastase-inhibiting protein isolated from a Korean leech, Guameri (Hirudo nipponia); 57 amino acids, 6,110 Da (VDENAEDTHGLCGEKTCSPAQVCLNNECACTAIRCMIFCPNGFKVDENGCEYPCTCA)",about 15%,no effect,no effect,no effect,about 15%,quite stable; also recorded: no change,about 15%,361 units/mg,competitive inhibition,about 90%,no effect,–
"elafin: elastase-inhibiting protein in the prior art, printed as isolated from european leeches (AQEPVKGPVSTKPGSCPIILIRCAMLNPPNRCLKDTDCPGIKKCCEGSCGMACFVPQ; UniProt P19957 61-117, looked up)",–,–,–,–,–,–,–,–,–,–,–,0.6 nM
